PMC12236752

Target: Avs8A (ECOR07), fused to 6xHis-SUMO (E. coli ECOR07) (UniProt B7LDL1)
Assay: MST

Basel 21 major capsid protein (natural protein)
Kd: 14 nM
